In patent publication US20260209316A1 (US Dept. of Health and Human Services, published 2026):
Like-named read-outs stand apart in the source and are kept apart here.

Assays:
[1] = molecular target: T1, mucin domain-deleted Zaire GP (GPdMuc) (Ebola (Zaire) virus (EBOV), UniProt Q05320 33-632); test: ELISA on coated GP
[2] = molecular target: T1, mucin domain-deleted Zaire GP (GPdMuc); test: BLI competition on Zaire GPdMuc (upper table); competitor 316L
[3] = molecular target: T1, mucin domain-deleted Zaire GP (GPdMuc); test: ELISA on coated GP; remark: listed apart in the source
[4] = molecular target: T1, mucin domain-deleted Zaire GP (GPdMuc); test: BLI competition on Zaire GPdMuc (upper table); competitor 13C6
[5] = molecular target: T1, mucin domain-deleted Zaire GP (GPdMuc); test: BLI competition on Zaire GPdMuc (upper table); competitor 380L
[6] = molecular target: T1, mucin domain-deleted Zaire GP (GPdMuc); test: BLI competition on Zaire GPdMuc (upper table); competitor 15H10
[7] = molecular target: T1, mucin domain-deleted Zaire GP (GPdMuc); test: BLI competition on Zaire GPdMuc (upper table); competitor KZ52
[8] = molecular target: T2, mucin domain-deleted Sudan GP (GPdMuc) (Sudan virus (SUDV), UniProt Q7T9D9 33-632); test: ELISA on coated GP
T2 construct: also called Sudan GPdMuc; GP(S)dMuc

[9] = molecular target: T3, mucin domain-deleted Zaire GP (GPdMuc) (Ebola (Zaire) virus (EBOV), UniProt Q05320 33-632); test: BLI competition on Zaire GPdMuc (upper table); competitor 316L
T3 construct: also called Zaire GPdMuc; GP(Z)dMuc

[10] = molecular target: T2, mucin domain-deleted Sudan GP (GPdMuc); test: ELISA on coated GP; remark: listed apart in the source
[11] = molecular target: T3, mucin domain-deleted Zaire GP (GPdMuc); test: ELISA on coated GP
[12] = molecular target: T2, mucin domain-deleted Sudan GP (GPdMuc); test: BLI competition on Sudan GPdMuc (lower table); competitor 15H10
[13] = molecular target: T3, mucin domain-deleted Zaire GP (GPdMuc); test: BLI competition on Zaire GPdMuc (upper table); competitor 13C6
[14] = molecular target: T2, mucin domain-deleted Sudan GP (GPdMuc); test: BLI competition on Sudan GPdMuc (lower table); competitor mAb166
[15] = molecular target: T3, mucin domain-deleted Zaire GP (GPdMuc); test: BLI competition on Zaire GPdMuc (upper table); competitor 15H10
[16] = molecular target: T3, mucin domain-deleted Zaire GP (GPdMuc); test: BLI competition on Zaire GPdMuc (upper table); competitor mAb114
[17] = molecular target: T3, mucin domain-deleted Zaire GP (GPdMuc); test: BLI competition on Zaire GPdMuc (upper table); competitor KZ52
[18] = molecular target: T4, mucin domain-deleted Sudan GP (GPdMuc) (Sudan virus (SUDV), UniProt Q7T9D9 33-632); test: ELISA on coated GP
[19] = molecular target: T4, mucin domain-deleted Sudan GP (GPdMuc); test: ELISA on coated GP; remark: listed apart in the source
[20] = molecular target: T4, mucin domain-deleted Sudan GP (GPdMuc); test: BLI competition on Sudan GPdMuc (lower table); competitor 15H10
[21] = molecular target: T4, mucin domain-deleted Sudan GP (GPdMuc); test: BLI competition on Sudan GPdMuc (lower table); competitor mAb166
[22] = molecular target: T3, mucin domain-deleted Zaire GP (GPdMuc); test: BLI competition on Zaire GPdMuc (upper table); competitor 380L
[23] = molecular target: T1, mucin domain-deleted Zaire GP (GPdMuc); test: BLI competition on Zaire GPdMuc (upper table); competitor mAb114
[24] = molecular target: T2, mucin domain-deleted Sudan GP (GPdMuc); test: ELISA on coated GP; remark: listed apart in the source
[25] = molecular target: T3, mucin domain-deleted Zaire GP (GPdMuc); test: ELISA on coated GP; remark: listed apart in the source
[26] = molecular target: T2, mucin domain-deleted Sudan GP (GPdMuc); test: ELISA on coated GP (EC50)

B1: antibody mAb114 (antibody, V domains shown)
VH: EVQLVESGGGLIQPGGSLRLSCAASGFALRMYDMHWVRQTIDKRLEWVSAVGPSGDTYYADSVKGRFAVSRENAKNSLSLQMNSLTAGDTAIYYCVRSDRGVAGLFDSWGQGILVTVSS
VL: DIQMTQSPSSLSASVGDRITITCRASQAFDNYVAWYQQRPGKVPKLLISAASALHAGVPSRFSGSGSGTHFTLTISSLQPEDVATYYCQNYNSAPLTFGGGTKVEIK
With B1 the EC50 [1] was 0.007 µg/mL, the “% inhibition of binding” value [2] was 96% and the EC50 [3] was 0.00904 µg/mL. The “% inhibition of binding” value [4] was 92%, the “% inhibition of binding” value [5] was 95% and the “% inhibition of binding” value [6] was 3%. For the same binder, the “% inhibition of binding” value [7] was 10%.

B2: antibody 545S (antibody, V domains shown)
VH: QVQLQESGPGLVKPSQTLSLTCTVSGGSISRAGSYWSWIRQHPGKGLEWIGYISYSGSTYYNPSLESRVTMSLDTSKSQFSLKLSSVTAADTAVYYCAREDRSGFYGLDVWGQGTTVTVSS
VL: QSVLTQPSSLSASPGATASLTCTLRSGINVDTYRIYWYQQKPGSPPQYLLRYKSDSDKHQGSGVPSRFSGSKDASANAGILLISGLQSADEADYYCMIWHSGAWVFGGGTKLTVQG
notes: also called 545S mAb
Binder B2 has an EC50 [8] of 0.0233 µg/mL.

B3: antibody 380L (antibody, V domains shown)
VH: EVQLVESGGGLVQPGGSLTLSCAASGFTFGDYVMHWVRQVPGRGLEWLSAVSWSGYTTYSADSVKGRFTISRDNAKNSLYLQMSRLGTADTGLYYCVTLIGAIGIRDSFDAWGRGVLVTVSS
VL: QSVLTQPPSMSGAPGQRVTVSCTGSSSNIGAGNYVQWYQQLPGTAPKVLIYQTDKRPSGISDRFSGSKSGTSASLTISGLQSEDEADYYCQVYDSSLNGWVFGGGTRLTVL
notes: also called 380L mAb; mAb 380L
In the case of B3, the “% inhibition of binding” value [9] is reported as 93%, the EC50 [10] is reported as 0.0238 µg/mL and the EC50 [11] is reported as 0.012 µg/mL. The “% inhibition of binding” value [12] was 3.6%, the “% inhibition of binding” value [13] was 97% and the “% inhibition of binding” value [14] was 81.9%. The “% inhibition of binding” value [15] was 24%, the “% inhibition of binding” value [16] was 100% and the “% inhibition of binding” value [17] was 13%.

B4: antibody 16F6 (antibody, V domains shown)
VH: EVQLVESGGGLVTPGGSLKLSCAASGFAFNYYDMFWVRQNTEKRLEWVAYINSGGGNTYYPDTVKGRFTISRDNAKKTLFLQMSSLRSEDTAMYYCARQLYGNSFFDYWGQGTSLTVSA
VL: DIVMTQSHKFMSTSVGDRVTITCKASQDVTTAVAWYQQKPGHSPKLLIYWASTRHTGVPDRFTGSGSGTDFTLTLNSVQAEDLALYYCQQHYSTPLTFGAGTKLELK
B4 was tested, and the EC50 [18] was 0.05 µg/mL, the EC50 [19] was 0.0558 µg/mL and the “% inhibition of binding” value [20] was 7.8%. For the same binder, the “% inhibition of binding” value [21] was 0.2%.

B5: antibody 316L (antibody, V domains shown)
VH: EERLVESGGGLVQPGGSLRLSCAASGFTFGDYAMHWVRQVPGKSLEWLSGISWSGYTTYSADSVKGRFTISRDNAKNSLYLQMNRLRPEDTGLYYCVTLIGAIGIKDSLDVWGRGVLVTVSS
VL: QSVLTQPPSVSGAPGQRVTVSCSGSSSNIGAGNYVQWYQQLPGTAPKVLIYQTEKRPSGTSDRFSGSKSDTSASLTINGLQSEDEADYYCQVYDSNLNGWVFGGGTRLTVLG
notes: also called 316L mAb; mAb 316L
With B5 the EC50 [10] was 0.0272 µg/mL, the EC50 [11] was 0.0124 µg/mL and the “% inhibition of binding” value [12] was 14.5%. For the same binder, the “% inhibition of binding” value [13] was 98%, the “% inhibition of binding” value [14] was 80% and the “% inhibition of binding” value [22] was 92%. The “% inhibition of binding” value [15] was 26%, the “% inhibition of binding” value [16] was 100% and the “% inhibition of binding” value [17] was 13%.

B6: antibody 291S (antibody, V domains shown)
VH: QVQLQESGPGLVKPSQTLSLTCTVSGGSFSSGFYWSWIRQRPGKGLEWVGYTYYSGSTYYNPSLQSRVTISVDTSKNQFSLNLSSVTAADTAVYHCARADYGGLFDYWGQGILVTVSS
VL: QSVLTQPSSLSASPGASASLTCTLRSGINVGTYRIFWYQQKPGSPPQFLLRYNSDSDKQQGSGVPSRFSGSKDASANAGILLISGLQSEDEADYYCMIWHTSAWVFGGGTKLTVL
With B6 the EC50 [8] was 0.0519 µg/mL.

B7: antibody 13C6 (antibody, V domains shown)
VH: QLTLKESGPGILKPSQTLSLTCSLSGFSLSTSGVGVGWFRQPSGKGLEWLALIWWDDDKYYNPSLKSQLSISKDFSRNQVFLKISNVDIADTATYYCARRDPFGYDNAMGYWGQGTSVTVSS
VL: DIVMTQSQKFMSTSVGDRVSLTCKASQNVGTAVAWYQQKPGQSPKLLIYSASNRYTGVPDRFTGSGSGTDFTLTISNMQSEDLADYFCQQYSSYPLTFGAGTKLELR
In the case of B7, the “% inhibition of binding” value [2] is reported as 95%, the “% inhibition of binding” value [5] is reported as 95% and the “% inhibition of binding” value [6] is reported as 1%. The “% inhibition of binding” value [23] was 97% and the “% inhibition of binding” value [7] was 16%.

B8: antibody 232L (antibody, V domains shown)
VH: KSQLVESGGGLVQPGGSLRLSCAASGFTFDAYAMHWVRQAPGEGLEWVTAISWSGSSTYYADSVKGRFTFSRDNAKNSLYLEMNSLRADDTAFYYCVKGGVYNWFDVWGPGVLVTVSS
VL: QSVLTQPPSVSGAPGQRVTISCTGSRSNIGGYYVSWYQQFPGTTPKLLIYQDNKRPSGVSDRFSGSKSGTSASLTITGLQTEDEADYYCLSYDSSLNGWVFGGGTRLTVL
Work on B8 yielded an EC50 [24] greater than 10 µg/mL, an EC50 [25] of 0.08 µg/mL and an EC50 [26] greater than 10 µg/mL.
